# From the DeepSol protein solubility set
# Assay: soluble on expression in E. coli; label from the status in PepcDB or PDB records
row,Sequence,soluble on expression in E. coli
1,MGSDKIHHHHHHMDQDDASPISSGVEGLDYVLRGGYAKYRSHLVEGRPGSGKTTLGLQFLIKGAAAGEKCLYITLSESRRELQSVAVRHGFSLDGIEILELVPPELSLDPSQLQTLVHSSDLELGETVQAALAEIERMKPDRVVFDSLSEIRLLSQGSLRYRRQVLALKSFFLLNNATVLLLDDLTAEHDDLNLHSISHGVIRMEQLSPIYGGERRRLRIIKMRGVQIRGGFHDFVIRPGGVMVFPRLVASEHEMAEHGTPATGNGSVDTLVGGGLDRGTSTLLMGPSGVGKSTIACSYCHSALKRGEHVLVLLFDETKRIFLARASGLGMDLGPFADNGNLLLEQIDPAELSPGELSSRIQSAVERSSARIVVIDSLTGYLNAMSEEQHLVLQMHEILTYLNQKGVVTILLLANHGLIGQMSAPVDMTYLCDSVMLLRFFESGGRLRRAISVVKKRVGPHEDTIREFKISATGLAVGEPLEEFRGILTGVPTYEGKQGNLLQDKAS,not soluble
2,MGSDKIHHHHHHMDRINYKHLHYFWHVARAGSVTRAAGQLNVSMQTISGQITKLEQQLGRSLFRQQGRGLALTEAGRLALDYADRIFLLGEELETALADPLLDQTLRLAAGISDVVPKGIASRLLRPALRTNGRLRLSCGEGDFDELIGELGRHRLDLVLADRPVASGEQQQFQSWPLLRCPVQLLAAPELHARCQAGFPASLEQAPLLLPSRDNVLRRQLEHWFDANGVRPDLVGEFDDHALMETFARQGLGLLPAPVSPDGEADHPGLLPLGALDGVWEHYYVTASRRKLQHPALQAILQAWT,not soluble
3,MGSDKIHHHHHHMDRSYRTPKAWLTKTSGFLQGYDYSLNPYVGCTFACSYCYVRKMPVALFHKGEWGDWVDIKQGVKETFSNELVRAKKRGRVHLFMSSSTDPYQPVEVEEKVTRSLLEVMADNPPDFLFVQTRSPLVTRDVDILQQLGKRVRVSLTIETDLESVRKAFAPKAPPIQGRKRALHALYQAGIPTQLTVAPILPSSDRFAESYVSIADQVCIDTFELGDGANGKRSRALRMPERLTELGYESWYEEAALEKVHQQFCAHFDESRVKLSQEGFLP,not soluble
4,MGSDKIHHHHHHMDSEIIKALKRFGFTQQESIMYVTLCRHGALTGYEAAKLAGISRSNAYAALSSLVEKGGAVVASDDTSKYVPTPRKELLVTIRRHCDETLEFLEQHLPEEQPVEMPYLTVTGYQNTMDKVRNMLRLAQLRVYISMHSGNAAQLKEDMAACAARGLKVVILSDADPQISGAIFMHNAAGTGHIKLIADTREVITGVVDQAARTGQCLYSANEHLVYLMREALLNEIELIKIRSGMSGAEPEESPTRGK,not soluble
5,MGSDKIHHHHHHMDSVSPELISNNQGYDRSHKQRLECLICNYHVDLNDKSAFSTFFCNVRAFRDEKFPIWRCPTCQTIHCLDVVDIDSYYAKYPFAEAKLTLPFRLCYQNLCQKMIEHGFSKTHSFLDYGCGNGLVVQYLRENGFANAYGYDPYAPKESFGDATVLQRGPFDYILLQDIIEHVEDPHALLSKLDSLLAPGGYLLLGTPNATNIDINRPELSNYYNAVHVPYHIHIYTREVVESLGKQQGWEVVKFFNRGYDDTRWFGLNTRTWNEYQSISDGTFDVIFEEINIWQALKSYRFLFYAFFGYWLSLRTDMTIMFRKKITD,not soluble
6,MGSDKIHHHHHHMDTKAFKRALHQSDRYNRKGFGKTTDVSGALESAYQSDLIQSLRQNGYRLQRGEITIRLAEAFGFCWGVERAVAIAYETRQHFPQERIWITNEIIHNPSVNQHLREMSVEFIPCERGEKDFSVVDRGDVVILPAFGASVQEMQLLDEKGCHIVDTTCPWVSKVWNTVEKHKRGAHTSIIHGKYNHEETVATSSFAETYLVVLNLEQAQYVCDYILNGGDRDEFMTRFGKACSAGFDPDRDLERIGIANQTTMLKSETEAIGKLFERTLLKKYGPQALNDHFLAFNTICDATQERQDAMFQLVEEPLDLIVVIGGFNSSNTTHLQEIAIERQIPSFHIDAAERIGPGNRIEHKPLHTDLTTTEPWLPAGPLTIGITSGASTPDKVVEDVIERLFDLQRS,not soluble
7,MGSDKIHHHHHHMDYPQQHIKPYNEDGKKTEQVERMFDNIAHAYDKLNHTLSLGIDRSWRRKAIAWLRPFRPQHIMDVATGTGDFAILACRELNPDELIGTDISEGMMNVGREKVKKEGLSDKISFAREDCTSLSFADNRFDAITVAFGIRNFEDLDKGLSEMCRVLKPGGHLVILELTTPDRFPMKQLFAIYSKVVIPLLGKLLSKDNSAYHYLPDTIKVFPQGEVMKGVISKTGFGEVHFRRLTFGICTLYTATK,not soluble
8,MGSDKIHHHHHHMDYRQPDLSVITVNYNGFHDTCEFIDSWAATVFSVSYEMIVIDNGSTANEAALLQKTYPFIQAVRSERNLGFAGGNNLGINLAKGKYLFLLNNDVCMVKDAIPLLIKRLLSSDKIAGVSPLIRDYAEPHAIQFAGYTQLSPITLRNRAIGKGKINKDHYPAQKTPYLHGAAMLLKKTIIDKLSLMPEEYFLYYEELDWCTYINREGYELWYDPACEIWHKDSSSTGKESPLKYYYLSRNRLLYAYRNLFDWKLPVSILYQTMIVCPKNILTALGKGKKAIAKAHWEGTKAFFKLRNKDKQP,not soluble
9,MGSDKIHHHHHHMEAADASRSNGSSPEARDARSPSGPSGSLENGTKADGKDAKTTNGHGGEAAEGKSLGSALKPGEGRSALFAGNEWRRPIIQFVESGDDKNSNYFSMDSMEGKRSPYAGLQLGAAKKPPVTFAEKGELRKSIFSESRKPTVSIMEPGETRRNSYPRADTGLFSRSKSGSEEVLCDSCIGNKQKAVKSCLVCQASFCELHLKPHLEGAAFRDHQLLEPIRDFEARKCPVHGKTMELFCQTDQTCICYLCMFQEHKNHSTVTVEEAKAEKETELSLQKEQLQLKIIEIEDEAEKWQKEKDRIKSFTTNEKAILEQNFRDLVRDLEKQKEEVRAALEQREQDAVDQVKVIMDALDERAKVLHEDKQTREQLHSISDSVLFLQEFGALMSNYSLPPPLPTYHVLLEGEGLGQSLGNFKDDLLNVCMRHVEKMCKADLSRNFIERNHMENGGDHRYVNNYTNSFGGEWSAPDTMKRYSMYLTPKGGVRTSYQPSSPGRFTKETTQKNFNNLYGTKGNYTSRVWEYSSSIQNSDNDLPVVQGSSSFSLKGYPSLMRSQSPKAQPQTWKSGKQTMLSHYRPFYVNKGNGIGSNEAP,not soluble
10,MGSDKIHHHHHHMEAVERVNLLGLDGAALSELVGQWGGKPFRARQLQRWVHQRGADSFDAMTDLARDFRAQLARDCVIEALPVNTEQRSSDGTRKWLFDVGQGNAIETVFIPEDDRGTLCISSQAGCVVNCRFCSTGHQGFNRNLRASEIIGQLWWAKRVLEAAADTARLPGGKAGEDTRVISNVVMMGMGEPLLNYDQVLPALRLMLDDNAYGLSRRRVTVSTSGVVPMMDRLSQDCPVALAVSLHAPNDALRDELVPLNKKYPLNALLAACERYLAHAPRDFITFEYCMLDGINDTDQHARELIQLARQVRCKLNLIPFNPFPASGLKRSPSARVRVFAQRLMDAGIVTTVRKTRGDDIDAACGQLAGEVRDRTRITERNATRTIPIQQVHA,not soluble
11,MGSDKIHHHHHHMEEITKIESIDQYDQLFGLETLHPLVNVIDFSKATKTVDYYRMNIGFYSLFLKDAKCGDLRYGRKYYDYQEGTVVCMAPGQVIGIDNRKQTPIRTKSIGLLFHPDLIRGTSLGQNIKHYSFFSYEVNEALHLSEQEREIVTDCIHKIQIELEHAIDKHSKQLIVRNIELLLDYCMRFYERQFITRNQANKDIIVKFEQLLDEYFQNQTALTEGLPSVKYFADKVCLSSNYFGDLIKKETGKTAQEYIQHRIIELAKERILEGSQTVSQIAYELGFQYPQHFSRLFKKNVGCTPNEYKQQN,not soluble
12,MGSDKIHHHHHHMEEVINGILIREVETKNIMTKSSLPVGGYSVNPYVGCTHACKYCYASFMKRFTGHKEEWGTFLDVKHWPEIKNPKKYAGQRVVIGSVTDGYNPQEEQFGNTRKLLEQLIGSDADILICTKSDLVVRDIDLLKKLGRVTVSWSINTLDENFKNDMDSASSIERRISAMKQVYESGIRTVCFVSPVFPGITDFEAIFERVKDQCDLFWLENLNLRGGFKKTIMDYITGQYPDLVPLYDEIYNKHNRSYFEALEVKAEKMAKKYDCAFVDNEMPYGRVPQGHPVIVDYFYHEEIRGTENTGKRNR,not soluble
13,MGSDKIHHHHHHMEFEFCVQDPTDPGTRYLYEAIIGAAADATTWRGMYAFATRGGVDQLIEDPVVHEFMRRGGEIDLIVGIDAVTNRQTLERMQALEERHEHFHPKVFWNTTGGLFHPKISHFGYADGRTKLILGSGNLTPGGLRHNFEGYSVISGGRREAIDLSSLDAFIARHEADIRPIDQAALDRAALNIVRPVAALPGPRAPQLRPPRAVSREAVLDRILLAQVPAAGGRWSQVHFNTQITEQYFRVTDVATQRVYLTSIDAAGLRGEEEVRPVVFSQANGNHKIEIAAAKGLDYPDSPPLLVFRERQVRCFDYMLLMPDSPGYGELLGLSQALPTIGRGLRRAITDMATLSQAWPACPLLTAGDALDQTI,not soluble
14,MGSDKIHHHHHHMEFHEIDRMAKKLGADIFGVADLDLLREYETFPENLLDSFDFGISIGVKLPDPLFDMLPDSRNLYSRYYVVANDMLDRIAFEISRAIESEGYEALPIPASKVLSDLHWRSYVSHKAIARAAGVGWVGRNLLLITPQFGPRVRLASVLTDMPLKAGKPARNRCGVCRECIDSCITQALRYSEFDDYPERDEVFEVDKCAAKLKEFASNPDIGTMVCGICIKVCPWGKLGNKTKGN,not soluble
15,MGSDKIHHHHHHMEHNRVLRLEHGINFRELGGYENTAGQTIKWQKLLRCGGMSLLTNRDLTYLDNYGLRYDIDLRQANEAEMSPDRYPKNTKYINTSVYPFTDNRRFDRRLKRLIKRMVVDDSFNAQTYAQMITDSHAVKVWQNLFATLLANDQPDQSVLFHCAAGKDRTGVAGALIMTALDVPRETIMQDYLLTNAVFMAADSMDTATIITKANAGDLASQFNVAMAVEADNMKMVFRVFDDLYGNGIGYLREVLGLSVADINNLRQLYLND,not soluble
16,MGSDKIHHHHHHMEIEAVEKEAIEKLSKISNVQELESFRIEFLGKKGKITGLMKNLKNLPPEERPAYGKRVNELREKIEKLFEEKRQQIQRILEQEKMEKMRIDVTVPGARRKLGHSHPVLKVMEEIERIFVSMGFDVVEGPEIETTWHNFDALNTPEWHPARDEHDSFYITDDLLLRTHTSPVQIRTMLERKPPIAIISPGKVYRRDYDATHLPMFHQVEGLHVDRDLSVAHLKFTLEEFARRMFGEGAKVRLRPSFFPFTEPSFEVDVYLSGYGWLEILGAGMVDPNVFLNVGYDPEEWTGYAFGMGVERIAMLKYGIADIREFVRNDVRFLSSY,not soluble
17,MGSDKIHHHHHHMEIHSSAAAEVFPVCRSLLGKLPAHSHNRSVAPTVCDYYPQIMKTYNSKMTTQHSSDIRNSQNISASFVTPHDAPVTSRKYVPKFNSNNHRIKTAAAFEKGSDIYHAVRPNYPNSVIELLNLSPNSRVLDIGCGTGKLTEQIAQQTSSVYALDPSKDMLDSFRSTLDIPSWQATAEQTAVSDSRFSTLTCAQTWHWVEPLAASAELDRISTDDAQLLLVWNTLDVSVPWVHRLSRIMHSGDTLAEGFIPHVAQPWELVSVLRGKHAQELYPDQIHTLAHTRSYWLRASEKTREKLTHNLSWYLTDHLELPSTSLVEIPYRFDAFLYKKALVKTQ,not soluble
18,MGSDKIHHHHHHMEIKQLRYFIEVAKREHISETALELNIAQSAISRQITLLEQELNVSLFKKQGRNITLTSEGKLLFNEALRIIEHLDSTIEQFQSHGLTKNKSIYIGYDESDVSHMLLPLIQTFHLQNDTHVIPSLLDHDTIINSVLNGNIDIGFTELTPEIRKHKQLHMLPLFEEHYHLYAPSDDPITMATHPPLIQFEHSHIYCLAPFAETVKKQLRKITKSDVYTISSQPLAQYLLRQKEGYIISSQNIHLPESKSWIDIKLDHTELKRTICAITKEPYTKSDIGILLTLIQQLMTKTSTFH,not soluble
